Experimental data published in publication PMC2909360.

Legend:
[1] = biological target: purified bovine cathepsin B (bovine)
[2] = biological target: purified bovine cathepsin C (bovine)
[3] = biological target: T1, purified human cathepsin H (human)
T1 sequence (P09668 116-335, looked up): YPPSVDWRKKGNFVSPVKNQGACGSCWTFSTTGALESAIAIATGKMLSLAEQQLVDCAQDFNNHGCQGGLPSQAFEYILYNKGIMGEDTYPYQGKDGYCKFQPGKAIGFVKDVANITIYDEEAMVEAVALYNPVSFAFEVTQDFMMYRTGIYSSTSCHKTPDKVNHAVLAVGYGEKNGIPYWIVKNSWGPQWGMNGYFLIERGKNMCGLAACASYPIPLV

purified papain = biological target: T2, purified papain (UniProt P00784)
T2 sequence: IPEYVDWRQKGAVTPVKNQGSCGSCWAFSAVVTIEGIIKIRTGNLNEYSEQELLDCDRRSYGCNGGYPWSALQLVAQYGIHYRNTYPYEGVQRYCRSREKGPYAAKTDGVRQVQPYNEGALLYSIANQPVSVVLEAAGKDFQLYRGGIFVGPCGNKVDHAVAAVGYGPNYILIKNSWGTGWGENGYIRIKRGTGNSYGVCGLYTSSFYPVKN

[4] = biological target: recombinant human cathepsin L (human) (UniProt P07711)
[5] = biological target: recombinant human cathepsin S (human) (UniProt P25774)
[6] = biological target: sialostatin L (Ixodes scapularis) (UniProt Q8MVB6); assay: crystal structure

Chain of purified chicken egg white cystatin (P01038 24-139): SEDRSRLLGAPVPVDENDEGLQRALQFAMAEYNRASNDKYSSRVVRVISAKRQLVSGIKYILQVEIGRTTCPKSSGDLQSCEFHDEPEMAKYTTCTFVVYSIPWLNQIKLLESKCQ
Chain of recombinant human cathepsin L (human) (P07711 18-333): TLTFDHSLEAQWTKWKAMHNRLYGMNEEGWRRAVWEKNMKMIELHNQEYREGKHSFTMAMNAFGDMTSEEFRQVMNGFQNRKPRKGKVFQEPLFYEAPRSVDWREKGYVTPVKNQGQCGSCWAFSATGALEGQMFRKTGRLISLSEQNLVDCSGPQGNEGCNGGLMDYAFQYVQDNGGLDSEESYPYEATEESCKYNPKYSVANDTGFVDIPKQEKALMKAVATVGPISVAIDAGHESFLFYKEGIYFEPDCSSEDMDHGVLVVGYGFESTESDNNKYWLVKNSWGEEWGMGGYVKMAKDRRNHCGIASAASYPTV
Chain of purified bovine cathepsin C (bovine) (Q3ZCJ8 25-463): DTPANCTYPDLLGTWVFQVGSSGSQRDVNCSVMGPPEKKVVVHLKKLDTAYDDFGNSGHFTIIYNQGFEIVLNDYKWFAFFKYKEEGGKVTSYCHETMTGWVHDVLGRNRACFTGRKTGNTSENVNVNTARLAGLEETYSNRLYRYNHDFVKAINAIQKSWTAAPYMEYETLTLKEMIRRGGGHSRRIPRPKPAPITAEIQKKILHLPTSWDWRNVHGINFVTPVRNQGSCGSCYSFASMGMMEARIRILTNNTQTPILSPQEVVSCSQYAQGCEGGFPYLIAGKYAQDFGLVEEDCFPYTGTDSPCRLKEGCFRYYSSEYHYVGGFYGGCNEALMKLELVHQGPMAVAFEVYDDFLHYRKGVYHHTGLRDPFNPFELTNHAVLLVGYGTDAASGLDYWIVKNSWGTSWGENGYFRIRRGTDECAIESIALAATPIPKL
Chain of recombinant human cathepsin S (human) (P25774 17-331): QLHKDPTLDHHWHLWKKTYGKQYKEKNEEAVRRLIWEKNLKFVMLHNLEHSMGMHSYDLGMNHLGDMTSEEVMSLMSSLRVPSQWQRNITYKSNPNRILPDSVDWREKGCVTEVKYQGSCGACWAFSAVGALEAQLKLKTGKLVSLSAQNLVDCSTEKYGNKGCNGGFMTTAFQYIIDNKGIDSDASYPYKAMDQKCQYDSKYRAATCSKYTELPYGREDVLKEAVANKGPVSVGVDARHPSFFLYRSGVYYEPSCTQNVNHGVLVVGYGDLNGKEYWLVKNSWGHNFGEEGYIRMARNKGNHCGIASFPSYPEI

IC50 of inhibition of enzyme activity (fluorogenic substrate) [1]	IC50 of inhibition of enzyme activity (fluorogenic substrate) [2]	IC50 of inhibition of enzyme activity (fluorogenic substrate) [3]	IC50 of inhibition of enzyme activity (fluorogenic substrate) (purified papain)	IC50 of inhibition of enzyme activity (fluorogenic substrate) [4]	IC50 of inhibition of enzyme activity (fluorogenic substrate) [5]	Substance	stoichiometry N [6]
800 nM	3.1 nM	39 nM	4.4 nM	2.9 nM	3.2 nM	purified chicken egg white cystatin (from UniProt P01038 24-139) (natural protein)	
						sialostatin L (from UniProt Q8MVB6 20-133) (natural protein)	2
